Data on one substance can be found in paper PMC3593554.

The target in this test is formyl peptide receptor (FPR1) on U87 astrocytoma cells (human (endogenous in U87)) (UniProt P21462). Description: flow cytometry on cells. In general terms: Flow cytometry measures light scatter and fluorescence of single cells or particles in a stream.
UniProt P21462, sequence (P21462 whole entry): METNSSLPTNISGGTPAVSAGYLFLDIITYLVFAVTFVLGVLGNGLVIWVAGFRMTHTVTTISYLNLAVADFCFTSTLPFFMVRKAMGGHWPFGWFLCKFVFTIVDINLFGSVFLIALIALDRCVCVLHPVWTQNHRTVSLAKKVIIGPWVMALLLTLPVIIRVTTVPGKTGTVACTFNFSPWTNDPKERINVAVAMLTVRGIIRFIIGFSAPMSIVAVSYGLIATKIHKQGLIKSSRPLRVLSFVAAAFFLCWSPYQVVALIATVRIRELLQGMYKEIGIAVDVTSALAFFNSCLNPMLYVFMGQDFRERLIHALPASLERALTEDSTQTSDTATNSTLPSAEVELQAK

As for “Chemotaxis Inhibitory Protein of S. aureus (CHIPS) (from UniProt A6QIG7 29-149) (natural protein)”, the percent inhibition of fMLF-FITC binding at 100 ug/ml CHIPS came to 81%.
